{"source": "a protein production outcome set (Wang et al. 2014)", "assay": "label from the status in PepcDB records"}
{"sequence": "MVSPKKLTPAMEQVKTFKEKYPDCILFMRMGDFYETFFEDAEICARELDIVQTSRSKDPEGNPIPLAGIPYHAVDLYLPRMIRKGYKVAVCEQVEDPKLAKGVVKRDVVRVVTPGTAIDADVIPGPTARYLMALCSDAKKTVMGLAFLDISTGEFFVREIPFEPGFSALATEIEQYNPLEILVPQGISADLISFLASTCKVLTPGRSGLFVDGTAELTAAFCVSSLDGFDVSSAECINAAAAALRYAKETQKTSLPHIRGFSRKYANDAMILDAITLRNLEILNPLRGDRNDTTLFGFLNRTKTPMGSRVLRSTITRPLTSPEKINHRLDAVGFFTRRPVLLSGTRTILSRFTDIERIAGRIAYGNASPRDLLALASSLAAVPELTAELCGAEGLLKDELEQIPSFDGVADLILSAIVDEPPLVYKNGGVIREGYSSDLDQIRNIVTNGRDWIAELQQTERERTGIRSLKIAYNNVFGYYIEITKANLHLVPDTYERKQTTANGERFTIPALREREAVMAQADDRVLALEISLFESLLTHLSEFVPALQQASRSIGTIDMIAAFADLSLSGNYVRPELVPGTELLIRDGRHPIVENTVPGGYVPNDTEMSSIGQQILILTGANMAGKSTYMRSVALICIMAQTGCFVPASFARIGIVDRVFTRVGASDDLAGGQSTFMVEMLELANILNNATDQSLILLDEIGRGTSTVDGYAIARAVLEYLHGKGGAGPRTLFATHFHQLIGMESELRRVRNYHFAVKEDQHDITFLRKLIPGATDRSYGIHVAKIAGVPKKVLVRASDLLREALTQDASSGGTKYYTQMLLTDAEPAPSAVEERIRDADPNMMTPMQALMFINELKALLEKK", "values": [{"measurement": "protein production", "value": "failed"}]}
{"sequence": "MVSRLVLGCGTVGHAVIGSLADRRGELFVFDGDESRVDSLRNESVAAEVRDVTDPAAITLPDRSVDMVVVAGERADRNRLAAIAADAAHPDAGLVVYLGFDATPKDRHRIDSVADRVVDPGAELLSHANSLTESGASQRLQALRQTLQGIDGRLGVFMHDNPDPDAIAAAVGLQRIAEDAGVDSQACYFGEISHQENRAFVNLLEFDLRNVETQSDAEFDAVALVDHSGPGVNDQLAPDTDVDIVIDHHPPTTDVDAGFTDIRPDTGATSTILVEYLRGYGIDVRTAVATALLYGIRVDTDDFAREITPRDFTAAAWLLPNADTDVLERIEAPSLSADTFDTIAAGIRNRQLNGSVLASCVGQITARDTLAQTADRLLAMRGVAVTFVYGYFDGTIYVSARSRRKDLDLGAVLRSAFDDLGSAGGHADMAGAQLPLGLFDAVGEDAATTLTEMIEEVVASRFFEEVHGGTSGIQQGE", "values": [{"measurement": "protein production", "value": "failed"}]}
{"sequence": "MVSSLFINPFSEDAREIVRKYGSLDTIDDTRDELLEIGRRTRGQNLADNSLLPASIAELAVKRLEWYLRRQRKDFNHRDYAYLMNPEIEEYDVLAFYILAQAAGAGFMKASREARLVVESAGAMVEDRLNVFGGEREEIMAEVLYELGSEGLRWTELADLLGSGKLKLTDLILKEGRVIIDRDEFITSFQDSIRDRSPDRLYDILVGLEVRETMISRMIMQRTEEYIGMVREMSSTVEVHPLILETAERIRETVEEIMSFTGGPVKSARPGKLVQEAFPPCIRGTLDGVRSGNRNDAIVLLLTSFISYARLYPSVFRDRTPMKVSDLDPDLRITLGEILPVIYDAADRCEPPLFEDDPQEKLNITAKLGFGVHDMPELENEGESKWYTPMSCEKIKIHLPDLCRPDKLCSSISNPLTYYNRKRWKLRSSGEKEELEHHHHHH", "values": [{"measurement": "protein production", "value": "not failed"}]}
{"sequence": "MVSVTFEPVGKKVEDEPDTILEIARRNGVLIRSDCGGKGVCGKCKVVVVDYRGSLSDITDHERKHLIEEEISKGYRLACQARVEEGRATIFIPPESRLERRKVAGLTIEKEVELNPAVRKVYAEIQPPSIEDQLPDYDRLTRALGDFSLDLETLSEMPKLLREAEWRVTATFWNGRLIDLEKGDVSDRCYGVAVDVGSSKIICHLVDLKSGETIATGYSDNPQVAYGEDIVSRITYASKSAENRKRLQTVVVETVNQIIAELCNESGVDLRHVYEVMIVGNSVMHHLFFGIEPRFIGVSPFTPAVRRGVSFPAEDVGLRINRKGYVSSLPLVAGFVGADAVANIAITGIHKAEEISMVIDIGTNTEIVIGNREKLGVCSAPSGPAFEGAHITFGMKAISGAIDSVRIERDEVIYTTIDNAKAKGLCGTGLIDLIAELYRNGIINRNGKFVKDHSRIIVDGVPKFVVAKAEETEFGKPITVSEKDINELLMAKGAIKSGWMILSERLGIEPDKIERIYLAGSFGRHINVENAKVIGLLPDIPSEKITFAGDTAVGGAKMALKSVRVRDEMEDVVSRLNYVELSVEKNFYSVFVRAIPI", "values": [{"measurement": "protein production", "value": "not failed"}]}
{"sequence": "MVSYDRHINHVRLFVDGILDSSFLTEGITKTNDSPIYIGGAPYSVDSCDFPFLLDELKIYNLSIGTDQIQSEASASLSGIEPSFIYFGCFHCDMNTAILSCPNNYHLCNKMELYIGVYNVLRKFSLDVNNIILPYSSESNLGIGICCTDI", "values": [{"measurement": "protein production", "value": "failed"}]}
